T1: CAPRIN-1 protein expressed on the cell membrane surface of human cancer cell lines (human, UniProt Q14444 2-709)
T1 construct: whole, on cells; also called human CAPRIN-1; Cytoplasmic- and proliferation-associated protein 1
T1 sequence (looked up): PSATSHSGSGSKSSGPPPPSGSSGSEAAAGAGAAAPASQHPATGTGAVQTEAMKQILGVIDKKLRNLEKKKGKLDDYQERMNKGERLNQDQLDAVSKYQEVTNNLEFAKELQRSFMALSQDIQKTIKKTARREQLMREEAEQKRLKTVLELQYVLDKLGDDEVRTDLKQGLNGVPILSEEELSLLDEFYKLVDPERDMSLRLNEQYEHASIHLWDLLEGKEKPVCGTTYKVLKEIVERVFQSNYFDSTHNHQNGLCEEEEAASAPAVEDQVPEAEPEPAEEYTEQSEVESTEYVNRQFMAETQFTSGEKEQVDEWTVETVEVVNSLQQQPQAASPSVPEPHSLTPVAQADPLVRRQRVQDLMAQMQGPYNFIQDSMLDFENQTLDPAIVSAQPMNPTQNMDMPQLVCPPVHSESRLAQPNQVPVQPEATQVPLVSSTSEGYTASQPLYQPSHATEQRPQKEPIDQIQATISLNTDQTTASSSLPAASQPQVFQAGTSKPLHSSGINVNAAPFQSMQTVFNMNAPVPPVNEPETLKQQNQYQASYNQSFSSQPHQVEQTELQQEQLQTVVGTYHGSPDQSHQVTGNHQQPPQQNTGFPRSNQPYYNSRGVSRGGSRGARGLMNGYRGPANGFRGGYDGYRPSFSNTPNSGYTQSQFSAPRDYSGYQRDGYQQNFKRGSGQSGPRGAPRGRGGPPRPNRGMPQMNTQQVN


Assays:
[1] = biological target: T1, CAPRIN-1 protein expressed on the cell …; assay: flow cytometry on Capan-2, MIAPaCa-2, PANC-1 and BxPC-3 cells, vs isotype control
Procedure: Next, four pancreatic cancer cell lines (Capan-2, MIAPaCa-2, PANC-1, and BxPC-3) confirmed to have CAPRIN-1 gene expression were examined for their expression of CAPRIN-1 protein on the cell surface. 10⁶ cells of each cell line were centrifuged in each 1.5-ml microcentrifuge tube. The cancer cell surface-reactive anti-CAPRIN-1 mouse monoclonal antibodies #1 to #22 prepared in Example 4 and the culture supernatant (100 μl) containing the anti-CAPRIN-1 mouse-chicken chimeric antibody #1, #2, or #3 prepared in the preceding paragraph (2) were separately added to the tubes and left standing for 1 hour on ice. After washing with PBS, the cells were suspended in FITC-labeled goat anti-mouse IgG antibodies (manufactured by Invitrogen Corp.) diluted 500-fold with PBS containing 0.1% FBS and left standing for 1 hour on ice. After washing with PBS, the fluorescence intensity was measured using FACSCalibur (Becton, Dickinson and Company). On the other hand, the same operation as above was performed using isotype control antibodies, instead of the anti-CAPRIN-1 mouse monoclonal antibodies #1 to #22 and the culture supernatant containing the mouse-chicken chimeric antibody #1, #2, or #3, to prepare a control. As a result, all the cells supplemented with any of the monoclonal antibodies #1 to #22 and the mouse-chicken chimeric antibodies #1, #2, and #3 had fluorescence intensity at least 20% stronger than that of the control. […] The above rate of enhancement in fluorescence intensity was indicated by the rate of increase in mean fluorescence intensity (MFI) in each cell line and calculated according to the following expression: […]

[2] = biological target: T1, CAPRIN-1 protein expressed on the cell …; assay: cell-based or functional assay

Binder	rate of increase in mean fluorescence intensity [1] [%]	cytotoxic activity (ADCC) against MIAPaCa-2 and Capan-2 [2] [%]
mouse monoclonal antibody #8 (antibody, V domains shown, Mouse hybridoma antibody; also called anti-CAPRIN-1 mouse monoclonal antibody #8) VH: GGGLVKPGGSLKLSCAASGFAFSSYDMSWIRQTPEKRLEWVAYISSGAGSTYYPDTVKGRFTVSRDNAKNTLYLQMSSLKSEDTAMYYCARHFYRFDYWGQGTTVTVSS VL: SIVMTQTPKFLLVSAGDRITITCKASQSVSNDVAWYQQKPGQSPKLLIYYASNRYTGVPDRFTGSGYGTDFTFTISTVQAEDLAVYFCQQDDRFPLTFGAGPS	≥ 20	≥ 10
mouse monoclonal antibody #3 (antibody, V domains shown) VH: GGGLVKPGGSLKLSCAASGFTFSSYGMSWVRQTPEKRLEWVATISSGGSYTYYPDSVKGRFTISRDNAKNTLYLQMSSLRSEDTAMYYCASLASYYFDYWGQGTTLTVSS VL: not shown	≥ 20	≥ 10
mouse monoclonal antibody #12 (antibody, V domains shown, Mouse hybridoma antibody; also called anti-CAPRIN-1 mouse monoclonal antibody #12) VH: EVQLHQFGAELVKPGASVKISCKASGYTFTDYNMDWVKQSHGKSLEWIGDINPNYDSTSYNQKFKGKATLTVDKSSSTAYMELRSLTSEDTAVYYCARSRSYDYEGFAYWGQGTLVTVSA VL: DIQMTQSPASLSASVGETVTITCRASGNIHNYLAWYQQKQGKSPQLLVYNAKTLADGVPSRFSGSGSGTQYSLKINSLQPEDFGSYYCQHFWSTLTFGAGTKLELKR	≥ 20	≥ 10
mouse monoclonal antibody #14 (antibody, V domains shown, Mouse hybridoma antibody; also called anti-CAPRIN-1 mouse monoclonal antibody #14) VH: EVQLHQFGAELVKPGASVKISCKASGYTFTDYNMDWVKQSHGKSLEWIGDINPNYDSTSYNQKFKGKATLTVDKSSSTAYMELRSLTSEDTAVYYCARSRSYDYEGFAYWGQGTLVTVSA VL: DIQLTQSPASLSASVGETVTITCRASGNIHNYLAWYQQKQGKSPQLLVYNAKTLADGVPSRFSGSGSGTQYSLKINSLQPEDFGSYYCQHFWSTLTFGGGTKLEIK	≥ 20	≥ 10
mouse monoclonal antibody #15 (antibody, V domains shown, Mouse hybridoma antibody; also called anti-CAPRIN-1 mouse monoclonal antibody #15) VH: EVQLHQFGAELVKPGASVKISCKASGYTFTDYNMDWVKQSHGKSLEWIGDINPNYDSTSYNQKFKGKATLTVDKSSSTAYMELRSLTSEDTAVYYCARSRSYDYEGFAYWGQGTLVTVSA VL: SGDRVSLSCRASQSISNYLHWYQQKSHESPRLLIKYASQSISGIPSRFSGSGSGTDFTLSINSVETEDFGMYFCQQSNSWPYTFGAGTKLEIKQ	≥ 20	≥ 10
human-chicken chimeric antibody #2 (antibody, human IgG1, kappa, V domains shown) VH: AVTLDESGGGLQTPGGGLSLVCKASGFTFSSFDMGWVRQAPGKGLEFVAQINDAGSRTWYATAVKGRATISRDNGQTTVRLQLNNLRAEDTGTYYCTRGSGYVGAGAIDAWGHGTEVIVSA VL: AALTQPSSVSANPGETVKITCSGGSGYYGWYQQQKSPGSAPVTVIYQNDKRPSDIPSRFSGSGSGSTNTLTITGVQAEDEAVYFCGRYDSTDSGIFGAGTTLTVLT	–	≥ 10
mouse monoclonal antibody #13 (antibody) chain 1: EVQLHQFGAELVKPGASVKISCKASGYTFTDYNMDWVKQSHGKSLEWIGDINPNYDSTSYNQKFKGKATLTVDKSSSTAYMELRSLTSEDTAVYYCARSRSYDYEGFAYWGQGTLVTVSAAKTTPPSVY chain 2: AVLRCSRGLLVIWISDIQLTQSPSSLAVTAGEKVTMSCKSSQSLLWSVNQKNYLSWYQQKQRQPPKLLIYGASIRESWVPDRFTGSGSGTDFTLTISNVHAEDLAVYYCQHNHGSFLPSRSEQVPSWRSNNR	≥ 20	≥ 10
mouse monoclonal antibody #6 (antibody) chain 1: DAELVKPGASVKISCKASGYTFTDHSIHWVQQKPEQGLEWIGYISPGNGNIKYNEKFKGKATLTADKSSSTAYMQLNSLTSEDSAVYFCKRSLGRGGPYYFDYWGQGTTVTVSS chain 2: DIVLTQAAPSLPVTPGESVSISCRSSKSLLHSNGNTYLYWFLQRPGQSPQLLIYRMSNLASGVPDRFSGSGSGTAFTLRISRVEAEDVGVYYCMQHREYPVTFGSGPN	≥ 20	≥ 10

Continued, in another order:

rate of increase in mean fluorescence intensity [1] [%]	Binder	cytotoxic activity (ADCC) against MIAPaCa-2 and Capan-2 [2] [%]
≥ 20	mouse monoclonal antibody #18 (antibody, V domains shown, Mouse hybridoma antibody; also called anti-CAPRIN-1 mouse monoclonal antibody #18) VH: LQESGAELARPGASVKLSCKASGYTFTSYWMQWVKQRPGQGLEWIGAIYPGDGDTRYTQKFKGKATLTADKSSSTAYMQLSSLASEDSAVYYCARGEYGNYFAYWGQGTTVTVSS VL: TSDASLGERVTITCKASQDINSYLSWFQQKPGKSPKTLIYRANRLVDGVPSRFSGSGSGQDYSLTISSLEYEDMGIYYCLQYDEFPLTFGGGTKLEIKQ	≥ 10
≥ 20	mouse-chicken chimeric antibody #1 (antibody, mouse IgG1, V domains shown, from CHO-K1 culture supernatant; also called anti-CAPRIN-1 mouse-chicken chimeric antibody #1) VH: AVTLDESGGGLQMSRGGLSLVCKASGFDFSSYQMNWIRQAPGKGLEFVAAINKFGNSTGHGAAVKGRVTISRDNGQSTVRLQLNNLRAEDTAIYFCTKHAYGYCGSGTWCAAGEIDAWGHGTEVIVSS VL: QAASTQPSSVSANPGETVEITCSGGGSYSYGWFQQKSPGSAPVTVIYYNNKRPSDIPSRFSGSKSGSTGTLTITGVQADDEAVYYCGSGDSTDTAVFGAGTTLTVLG	–
≥ 20	mouse-chicken chimeric antibody #3 (antibody, mouse IgG1, V domains shown, also called anti-CAPRIN-1 mouse-chicken chimeric antibody #3) VH: AVTLDESGGGLQTPGGALSLVCKASGFTFSGYDMLWVRQAPGKGLEWVAGIGSTGGGTDYGAAVKGRATISRDNGQSTVRLQLNNLRAEDTATYYCAKVAGGCNSGYCRDSPGSIDAWGHGTEVIVS VL: AVTQQPASVSANPGETVKITCSGGGSRNYYGWYQQKSPGSVPVTVIYYDDQRPSNIPSRFSGALSGSTSTLTITGVQADDEAVYFCGSADSNTYEGSFGAGTTLTVL	–
≥ 20	mouse-chicken chimeric antibody #2 (antibody, mouse IgG1, V domains shown, also called anti-CAPRIN-1 mouse-chicken chimeric antibody #2) VH: AVTLDESGGGLQTPGGGLSLVCKASGFTFSSFDMGWVRQAPGKGLEFVAQINDAGSRTWYATAVKGRATISRDNGQTTVRLQLNNLRAEDTGTYYCTRGSGYVGAGAIDAWGHGTEVIVS VL: AALTQPSSVSANPGETVKITCSGGSGYYGWYQQQKSPGSAPVTVIYQNDKRPSDIPSRFSGSGSGSTNTLTITGVQAEDEAVYFCGRYDSTDSGIFGAGTTLTVL	–

From patent US20140308283A1 (TORAY INDUSTRIES, published 2014)
